Laboratory results taken from patent US20240084003A1 (SIMCERE ZAIMING PHARMACEUTICAL, published 2024).
Numbering of substitutions follows the chain as printed. Where two headings read alike, the source gives them in different places. Each block holds one binder with its values, some of them ahead of it.

Key:
[1] = target: T1, murine CD22 protein (ACROBiosystems, SI2-M52Ha) (murine, UniProt P35329 22-708); experiment: ELISA, murine CD22-ECD-His coated
T1 construct: extracellular domain; also called murine CD22-ECD; murine CD22-ECD-His
T1 sequence (looked up): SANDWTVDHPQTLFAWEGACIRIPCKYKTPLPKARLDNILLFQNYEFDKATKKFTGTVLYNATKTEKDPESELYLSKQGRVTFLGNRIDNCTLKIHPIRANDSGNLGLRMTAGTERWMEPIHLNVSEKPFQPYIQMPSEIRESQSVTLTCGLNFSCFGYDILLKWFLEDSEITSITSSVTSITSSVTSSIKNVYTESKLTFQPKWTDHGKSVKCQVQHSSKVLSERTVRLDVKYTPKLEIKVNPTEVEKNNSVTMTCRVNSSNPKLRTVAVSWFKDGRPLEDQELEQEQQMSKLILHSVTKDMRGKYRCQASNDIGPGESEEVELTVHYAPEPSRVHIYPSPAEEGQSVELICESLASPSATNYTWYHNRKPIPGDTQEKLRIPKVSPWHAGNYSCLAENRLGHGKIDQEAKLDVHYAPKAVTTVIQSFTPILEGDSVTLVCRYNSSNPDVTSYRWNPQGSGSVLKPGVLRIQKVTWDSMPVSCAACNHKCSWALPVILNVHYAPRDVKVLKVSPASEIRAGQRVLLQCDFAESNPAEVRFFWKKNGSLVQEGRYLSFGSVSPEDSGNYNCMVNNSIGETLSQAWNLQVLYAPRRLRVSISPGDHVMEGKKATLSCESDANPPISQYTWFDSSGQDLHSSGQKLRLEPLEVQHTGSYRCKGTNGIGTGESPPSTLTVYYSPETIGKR
Procedure, shortened: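 Plates were coated overnight at 4° C with 2 μg/mL CD22 protein in PBS and blocked with PBS + 2% BSA. Chimeric antibodies were incubated for 2 h at 37° C, then HRP-labelled secondary for 2 h at 37° C. Bound antibody was read by TMB colour development (30 min, RT) stopped with 1.0 N HCl.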

[2] = target: T2, monkey CD22 protein (ACROBiosystems, SI2-R52Ha) (monkey (rhesus monkey in paragraph 148), UniProt H9G1X2 18-686); experiment: ELISA, monkey CD22-ECD-His coated
T2 construct: extracellular domain; also called monkey CD22-ECD; monkey CD22-ECD-His
T2 sequence: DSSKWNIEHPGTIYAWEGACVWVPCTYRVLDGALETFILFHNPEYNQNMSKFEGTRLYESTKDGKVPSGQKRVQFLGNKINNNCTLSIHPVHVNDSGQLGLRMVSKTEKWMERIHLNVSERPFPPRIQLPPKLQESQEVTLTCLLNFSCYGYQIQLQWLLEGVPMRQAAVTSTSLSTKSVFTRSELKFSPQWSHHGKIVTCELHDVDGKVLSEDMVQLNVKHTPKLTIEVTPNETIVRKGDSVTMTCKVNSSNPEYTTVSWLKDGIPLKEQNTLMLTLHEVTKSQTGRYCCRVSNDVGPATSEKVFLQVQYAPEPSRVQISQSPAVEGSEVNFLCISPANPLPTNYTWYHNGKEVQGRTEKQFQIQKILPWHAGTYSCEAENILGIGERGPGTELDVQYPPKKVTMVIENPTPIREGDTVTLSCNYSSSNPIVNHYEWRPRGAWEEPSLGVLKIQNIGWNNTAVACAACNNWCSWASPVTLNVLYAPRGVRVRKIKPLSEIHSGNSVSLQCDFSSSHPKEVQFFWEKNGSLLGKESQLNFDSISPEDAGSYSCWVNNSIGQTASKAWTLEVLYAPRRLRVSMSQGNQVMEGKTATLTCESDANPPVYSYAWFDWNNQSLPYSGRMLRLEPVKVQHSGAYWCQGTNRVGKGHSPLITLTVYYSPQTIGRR
Description: (§1) In order to detect the binding activity of CD22 human-murine chimeric antibodies to CD22 protein, the purified human CD22-ECD-His protein obtained in Example 2 was diluted with PBS to a final concentration of 2 μg/mL, and then added to 96-well ELISA plate at 100 μl/well. The plate was sealed with plastic film and incubated overnight at 4° C., the plate was washed 2 times with PBS the next day, and then a blocking solution [PBS+2% (w/w) BSA] was added for blocking at room temperature for 2 hours. […] After incubation at 37° C. for 2 hours, the plate was washed 3 times with PBS. HRP (horseradish peroxidase)-labeled secondary antibody (purchased from Sigma, catalog number: A0170) was added, and incubated at 37° C. for 2 hours, and the plate was washed 5 times with PBS. TMB substrate was added at 50 μl/well, and incubated at room temperature for 30 minutes, then a stop solution (1.0 N HCl) was added at 50 μl/well.
(§2) In order to detect the species cross-binding activity of the chimeric antibodies, an ELISA plate was coated with commercial murine CD22 protein (ACROBiosystems, catalog number: SI2-M52Ha) and monkey CD22 protein (ACROBiosystems, catalog number: SI2-R52Ha), respectively, and the ELISA detection was performed according to the method in Example 5.1.

[3] = target: T3, monkey CD22 (full length, on HEK293T cells) (monkey); experiment: FACS, HEK293T-monkey CD22 cells (293T as parent cells)
T3 construct: NCBI XP_014979161.2; also called HEK293T-monkey CD22; HEK293T cells overexpressing monkey CD22
T3 chain: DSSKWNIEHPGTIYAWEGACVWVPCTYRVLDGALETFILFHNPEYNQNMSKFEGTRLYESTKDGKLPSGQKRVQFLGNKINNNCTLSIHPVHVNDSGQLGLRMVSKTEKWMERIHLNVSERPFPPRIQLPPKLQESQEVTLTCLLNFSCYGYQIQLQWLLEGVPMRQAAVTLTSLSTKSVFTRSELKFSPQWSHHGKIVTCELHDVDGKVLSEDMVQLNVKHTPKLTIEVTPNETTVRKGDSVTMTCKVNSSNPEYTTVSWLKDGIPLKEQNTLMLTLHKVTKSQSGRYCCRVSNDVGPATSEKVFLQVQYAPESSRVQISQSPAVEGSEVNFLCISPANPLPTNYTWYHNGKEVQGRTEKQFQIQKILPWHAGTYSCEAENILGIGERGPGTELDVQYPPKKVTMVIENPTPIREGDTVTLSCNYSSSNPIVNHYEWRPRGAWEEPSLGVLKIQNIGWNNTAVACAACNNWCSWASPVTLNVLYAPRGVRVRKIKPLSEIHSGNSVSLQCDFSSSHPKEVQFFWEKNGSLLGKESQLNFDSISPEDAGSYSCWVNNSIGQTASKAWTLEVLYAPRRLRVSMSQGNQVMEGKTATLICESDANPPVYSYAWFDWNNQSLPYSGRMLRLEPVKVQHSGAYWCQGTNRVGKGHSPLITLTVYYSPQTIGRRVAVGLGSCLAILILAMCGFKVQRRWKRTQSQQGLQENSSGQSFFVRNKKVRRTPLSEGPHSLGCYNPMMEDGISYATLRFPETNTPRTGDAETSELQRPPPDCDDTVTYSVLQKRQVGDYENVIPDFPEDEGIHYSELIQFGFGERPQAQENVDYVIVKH
Excerpt: (§3) The required cells were scale-up cultured in a T-75 cell culture flask to the logarithmic growth phase. For the adherent cell CHO-K1, the medium was aspirated, the cells were washed 2 times with PBS buffer, and then digested with trypsin. After the digestion was terminated, the cells were washed 2 times with PBS buffer. For suspension cell Raji, the medium supernatant was directly centrifuged and discarded, and the cell pellet was washed 2 times with PBS. After counting the cells in the previous step, the cell pellet was resuspended with [PBS+2% (w/w) BSA] blocking solution to 2×10⁶ cells/ml, and added to a 96-well FACS reaction plate at 50 μl/well, and then the chimeric antibody test sample was added at 50 μl/well, and incubated on ice for 2 hours. The mixture was centrifuged and washed 3 times with PBS buffer, Alexa Flour 488-labeled secondary antibody (purchased from Invitrogen, catalog number: A-11013) was added at 50 μl/well, and incubated on ice for 1 hour. The obtained mixture was centrifuged and washed 5 times with PBS, and FACS (FACS Canto™, purchased from BD Company) was used for detection and result analysis. Data analysis was performed by software (CellQuest) to obtain the mean fluorescence density (MFI)of the cells. And then software (GraphPad Prism8) was used for analysis, data fitting, and EC50 value calculation. […] The same method was used to detect the binding of the chimeric antibodies to endogenous CD22-negative cell MoLT4 cells (purchased from ATCC, CRL-1582) and CHO-K1 cells.
(§4) HEK293T-monkey CD22 cells were subjected to FACS detection and data analysis according to the method in Example 5.2.

[4] = target: T4, monkey CD22 on HEK293T-monkey CD22 cells (monkey); experiment: FACS, HEK293T-monkey CD22 cells
T4 construct: full-length entry expressed on stably transfected HEK293T cells
T4 chain: T3 chain
Description: as §3, with “For” for “The required cells were scale-up cultured in a T-75 cell culture flask to the logarithmic growth phase. For the adherent cell CHO-K1, the medium was aspirated, the cells were washed 2 times with PBS buffer, and then digested with trypsin. After the digestion was terminated, the cells were washed 2 times with PBS buffer. For”
as §4

[5] = target: T5, monkey CD22 protein (ACROBiosystems, catalog number SI2-R52Ha) (monkey, UniProt F6W485 20-688); experiment: ELISA, coated monkey CD22 protein, antibody 0.0001 nM
T5 construct: commercial protein; also called monkey CD22-ECD; monkey CD22-ECD-His
T5 sequence: T2 sequence with V66L, S172L, I236T, E280K, T286S, P315S, T597I
Description: as §1, §2

[6] = target: T5, monkey CD22 protein (ACROBiosystems, …); experiment: ELISA, coated monkey CD22 protein, antibody 0.01 nM
Description: as §1, §2

[7] = target: T5, monkey CD22 protein (ACROBiosystems, …); experiment: ELISA, coated monkey CD22 protein, antibody 0.1 nM
Description: as §1, §2

[8] = target: T4, monkey CD22 on HEK293T-monkey CD22 cells; experiment: FACS, HEK293T-monkey CD22 cells, EC50 column
Description: as §3, with “For” for “The required cells were scale-up cultured in a T-75 cell culture flask to the logarithmic growth phase. For the adherent cell CHO-K1, the medium was aspirated, the cells were washed 2 times with PBS buffer, and then digested with trypsin. After the digestion was terminated, the cells were washed 2 times with PBS buffer. For”
as §4

[9] = target: T5, monkey CD22 protein (ACROBiosystems, …); experiment: ELISA, coated monkey CD22 protein, antibody 0.001 nM
Description: as §1, §2

[10] = target: T5, monkey CD22 protein (ACROBiosystems, …); experiment: ELISA, coated monkey CD22 protein, antibody 100 nM
Description: as §1, §2

[11] = target: T5, monkey CD22 protein (ACROBiosystems, …); experiment: ELISA, coated monkey CD22 protein, antibody 0.00001 nM
Description: as §1, §2

[12] = target: T5, monkey CD22 protein (ACROBiosystems, …); experiment: ELISA, coated monkey CD22 protein, antibody 10 nM
Description: as §1, §2

[13] = target: T4, monkey CD22 on HEK293T-monkey CD22 cells; experiment: FACS, HEK293T-monkey CD22 cells
Description: as §3, with “For” for “The required cells were scale-up cultured in a T-75 cell culture flask to the logarithmic growth phase. For the adherent cell CHO-K1, the medium was aspirated, the cells were washed 2 times with PBS buffer, and then digested with trypsin. After the digestion was terminated, the cells were washed 2 times with PBS buffer. For”
as §4

binding result [1]: no binding (tested: 100 nM)
binding result [2]: no binding (tested: 100 nM)
binding result [3]: no binding (tested: 10 nM)
B1: m971-hIgG1 (antibody, V domains shown)
VH: QVQLQQSGPGLVKPSQTLSLTCAISGDSVSSNSAAWNWIRQSPSRGLEWLGRTYYRSKWYNDYAVSVKSRITINPDTSKNQFSLQLNSVTPEDTAVYYCAREVTGDLEDAFDIWGQGTMVTVSS
VL: DIQMTQSPSSLSASVGDRVTITCRASQTIWSYLNWYQQRPGKAPNLLIYAASSLQSGVPSRFSGRGSGTDFTLTISSLQAEDFATYYCQQSYSIPQTFGQGTKLEIKR
notes: Control antibody; variable regions from US 8,591,889 B on human IgG1 constant regions

Maximum mean fluorescence intensity [4]: 104 MFI
OD450 [5]: 0.07 OD450
OD450 [6]: 0.07 OD450
OD450 [7]: 0.07 OD450
binding result [8]: no binding
OD450 [9]: 0.06 OD450
OD450 [10]: 0.12 OD450
OD450 [11]: 0.07 OD450
OD450 [12]: 0.09 OD450
Maximum mean fluorescence intensity [13]: 49 MFI
B2: m971-hIgG1 (antibody, V domains shown)
VH: B1 VH
VL: B1 VL
notes: control anti-CD22 antibody; variable regions from US 8,591,889 on human IgG1 constant regions
